Measurements taken from patent US20160166636A1.
Square brackets hold non-standard residues; d marks the D form. Ends that are not written are not given here. Met(O) = CS(=O)CC[C@H](N)C(=O)O; pS = N[C@@H](COP(=O)(O)O)C(=O)O

What was measured:
[1] = target: Recombinant bovine HSC70 (Stressgen) (bovine) (UniProt P19120); assay: SPR Biacore 3000, HSC70 immobilised, peptide analyte at 25 uM, 1:1 Langmuir fit
[2] = target: Recombinant bovine HSC70 (Stressgen) (bovine) (UniProt P19120); assay: SPR Biacore 3000, HSC70 immobilised, peptide analyte at 1.56 uM, 1:1 Langmuir fit
[3] = target: Recombinant bovine HSC70 (Stressgen) (bovine) (UniProt P19120); assay: SPR Biacore 3000, HSC70 immobilised, peptide analyte at 12.5 uM, 1:1 Langmuir fit
[4] = target: Recombinant bovine HSC70 (Stressgen) (bovine) (UniProt P19120); assay: SPR Biacore 3000, HSC70 immobilised, peptide analyte at 3.12 uM, 1:1 Langmuir fit
[5] = target: Recombinant bovine HSC70 (Stressgen) (bovine) (UniProt P19120); assay: SPR Biacore 3000, HSC70 immobilised, peptide analyte at 6.25 uM, 1:1 Langmuir fit
[6] = target: Recombinant bovine HSC70 (Stressgen) (bovine) (UniProt P19120); assay: SPR Biacore 3000, HSC70 immobilised on CM5, peptide as analyte 1.56-25 uM, 1:1 Langmuir global fit, 25 C

Sequence of Recombinant bovine HSC70 (Stressgen) (bovine) (P19120 whole entry): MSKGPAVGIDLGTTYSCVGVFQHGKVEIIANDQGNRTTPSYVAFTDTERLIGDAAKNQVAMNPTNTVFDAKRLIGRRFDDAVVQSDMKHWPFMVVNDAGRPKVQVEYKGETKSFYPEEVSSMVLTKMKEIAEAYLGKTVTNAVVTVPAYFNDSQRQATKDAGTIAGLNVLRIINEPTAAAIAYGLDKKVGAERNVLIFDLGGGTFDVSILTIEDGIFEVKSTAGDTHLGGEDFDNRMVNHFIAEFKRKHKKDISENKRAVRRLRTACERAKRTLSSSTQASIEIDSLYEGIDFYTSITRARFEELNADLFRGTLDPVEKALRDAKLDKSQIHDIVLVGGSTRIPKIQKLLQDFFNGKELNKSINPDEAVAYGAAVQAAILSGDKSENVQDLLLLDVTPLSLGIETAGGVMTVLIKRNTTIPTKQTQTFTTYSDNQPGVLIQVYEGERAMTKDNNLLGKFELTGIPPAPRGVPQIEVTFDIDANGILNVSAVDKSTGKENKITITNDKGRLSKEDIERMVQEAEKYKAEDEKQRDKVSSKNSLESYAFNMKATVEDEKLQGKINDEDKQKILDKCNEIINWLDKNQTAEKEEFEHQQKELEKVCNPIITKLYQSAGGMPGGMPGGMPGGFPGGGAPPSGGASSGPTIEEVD

Row | Binder | Ka [1] [M⁻¹] | Kd [1] [µM] | Req [1] [RU] | kobs [1] [s⁻¹] | koff [1] [s⁻¹] | Ka [2] [M⁻¹] | Kd [2] [µM] | Req [2] [RU] | kobs [2] [s⁻¹] | koff [2] [s⁻¹] | Ka [3] [M⁻¹] | Kd [3] [µM] | Req [3] [RU] | kobs [3] [s⁻¹] | koff [3] [s⁻¹] | Ka [4] [M⁻¹] | Kd [4] [µM] | Req [4] [RU] | kobs [4] [s⁻¹] | koff [4] [s⁻¹] | further results
1 | RIH[Met(O)]VYSKR[pS]GKPRGYAFIEY | 524000 | 1.91 | 36.3 | 0.031 | 0.0022 | 524000 | 1.91 | 17.6 | 0.004 | 0.0022 | 524000 | 1.91 | 33.9 | 0.0166 | 0.0022 | 524000 | 1.91 | 24.2 | 0.0058 | 0.0022 | Ka [5]: 524000 M⁻¹; Kd [5]: 1.91 µM; Req [5]: 29.9 RU; kobs [5]: 0.0094 s⁻¹; koff [5]: 0.0022 s⁻¹; kon [6]: 1150 M⁻¹ s⁻¹
2 | RIHMVYSKR[pS]GKPRGYAFIEY [P140 peptide (peptide consisting of SEQ ID NO: 1 in which serine at position 10 is phosphorylated)] | 144000 | 6.94 | 65.2 | 0.0144 | 0.00312 | 144000 | 6.94 | 15.3 | 0.00382 | 0.00312 | 144000 | 6.94 | 53.6 | 0.00874 | 0.00312 | 144000 | 6.94 | 25.8 | 0.00452 | 0.00312 | Ka [5]: 144000 M⁻¹; Kd [5]: 6.94 µM; Req [5]: 39.5 RU; kobs [5]: 0.00593 s⁻¹; koff [5]: 0.00312 s⁻¹; kon [6]: 450 M⁻¹ s⁻¹
